# Experimental data published in US20180298357A1.
# Columns and labels:
# [1] = biological target: DNA polymerase I (Sau) of Staphylococcus aureus (Staphylococcus aureus); assay: cell-based or functional assay
# [2] = biological target: Sau-TBD, hybrid DNA polymerase prepared by inserting a thioredoxin binding domain (TBD) of bacteriophage T7 DNA polymerase into DNA polymerase I (Sau) of S. aureus; assay: cell-based or functional assay
substance,measurement,setting,value
TrxA (thioredoxin of E. coli) (from UniProt P0AA25 2-109),"Polymerization activities (units/mg protein), +TrxA (units/mg protein)",[1],3100
same,"Average amplification length of primers (nt) [1/(1 - PI)], in the presence of TrxA",[2],74.1 nt
same,"Micro continuous synthetic capacities (PI), in the presence of TrxA",[2],0.987
same,"Polymerization activities (units/mg protein), +TrxA (units/mg protein)",[2],2860
same,fold improvement of average amplification length of the primer on addition of TrxA,[2],> 20 fold
same,fold improvement of polymerization activity on addition of TrxA,[2],> 2 fold
